Laboratory results reported in patent publication US6942981.
One block for each binder: values may come before it. Ends that are not written are not given here. * marks the point of attachment. Biotin = O=C1N[C@H]2[C@H](CS[C@H]2CCCCC(=O)*)N1

Tests used:
Test in all cases: A/G assays
[1] = target: T1, GST-MPP2 PDZ domain fusion protein
T1 construct: also called maguk p55 subfamily member 2 (DLG2); MMP2; not shown: glutathione S-transferase (GST) encoded by pGEX-3X
T1 chain: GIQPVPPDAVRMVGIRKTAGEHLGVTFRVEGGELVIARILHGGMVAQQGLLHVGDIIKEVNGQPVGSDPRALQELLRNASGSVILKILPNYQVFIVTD

[2] = target: T2, GST-DVL1 PDZ domain fusion protein (human)
T2 construct: also called human dishevelled segment polarity protein homolog; not shown: glutathione S-transferase (GST) encoded by pGEX-3X
T2 chain: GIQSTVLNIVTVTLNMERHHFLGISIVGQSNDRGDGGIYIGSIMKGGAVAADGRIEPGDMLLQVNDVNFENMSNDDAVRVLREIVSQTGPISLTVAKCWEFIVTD

[3] = target: T3, GST-SYN1a (alpha1-syntrophin) PDZ domain fusion protein (Homo sapiens (Human), UniProt Q13424 84-179)
T3 construct: also called SYN 1 α; not shown: glutathione S-transferase (GST) encoded by pGEX-3X
T3 sequence: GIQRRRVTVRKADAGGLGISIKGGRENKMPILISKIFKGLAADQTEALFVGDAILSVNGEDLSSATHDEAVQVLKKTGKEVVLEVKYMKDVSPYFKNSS

[4] = target: T4, GST-TAX2 PDZ domain fusion protein (human, UniProt O14908 129-216)
T4 construct: not shown: glutathione S-transferase (GST) encoded by pGEX-3X
T4 chain: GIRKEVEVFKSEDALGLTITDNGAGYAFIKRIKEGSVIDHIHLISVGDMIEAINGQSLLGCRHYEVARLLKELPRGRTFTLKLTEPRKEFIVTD

[5] = target: T5, GST-LIMK2 PDZ domain fusion protein (human, UniProt P53671 147-237)
T5 construct: also called human LIM domain kinase 2; not shown: glutathione S-transferase (GST) encoded by pGEX-3X
T5 sequence: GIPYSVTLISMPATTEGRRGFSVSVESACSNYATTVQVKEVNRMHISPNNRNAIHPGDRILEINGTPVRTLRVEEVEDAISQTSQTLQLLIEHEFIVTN

[6] = target: T6, GST-MINT3 PDZ domain fusion protein (human)
T6 construct: also called human MINT3; not shown: glutathione S-transferase (GST) encoded by pGEX-3X
T6 chain: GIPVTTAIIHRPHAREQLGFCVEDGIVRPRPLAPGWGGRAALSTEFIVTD

[7] = target: T7, GST-NeDLG PDZ domains 1-2 fusion protein (Mus musculus (Mouse), UniProt P70175 147-332)
T7 construct: also called NeDLG1; not shown: glutathione S-transferase (GST) encoded by pGEX-3X
T7 chain: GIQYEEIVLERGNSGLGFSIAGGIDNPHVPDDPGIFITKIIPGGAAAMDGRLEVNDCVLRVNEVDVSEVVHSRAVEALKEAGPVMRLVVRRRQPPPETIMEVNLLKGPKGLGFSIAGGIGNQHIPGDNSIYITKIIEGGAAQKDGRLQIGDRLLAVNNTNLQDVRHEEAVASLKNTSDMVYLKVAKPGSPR

B1: CD49F (Aform, alpha6) C-terminal peptide AA12L (peptide)
peptide: Biotin-HKAEIHAQPSDKERLTSDA
binding result [1]: no binding | binding result [2]: no binding | binding result [3]: no binding | binding result [4]: no binding | binding result [5]: no binding | binding result [6]: no binding | binding result [7]: no binding

B2: CD3n C-terminal peptide AA4L (peptide)
peptide: Biotin-SVFSIPTLWSPWPPSSSSQL
notes: also called CD3-η
binding result [1]: no binding | binding result [2]: no binding | binding result [3]: no binding | binding result [4]: no binding | binding result [5]: no binding | binding result [6]: no binding | binding result [7]: no binding

B3: CD49E (alpha-4) C-terminal peptide AA11L (peptide)
peptide: Biotin-PYGTAMEKAQLKPPATSDA
binding result [1]: no binding | binding result [2]: no binding | binding result [3]: no binding | binding result [4]: no binding | binding result [5]: no binding | binding result [6]: no binding | binding result [7]: no binding

B4: CC CKR-3 C-terminal peptide AA43L (peptide)
peptide: Biotin-LERTSSVSPSTAEPELSIVF
binding result [1]: no binding | binding result [2]: no binding | binding result [3]: no binding | binding result [4]: no binding | binding result [5]: no binding | binding result [6]: no binding | binding result [7]: no binding

B5: CC CKR-4 C-terminal peptide AA44L (peptide)
peptide: Biotin-DTPSSSYTQSTMDHDLHDAL
binding result [1]: no binding | binding result [2]: no binding | binding result [3]: no binding | binding result [4]: no binding | binding result [5]: no binding | binding result [6]: no binding | binding result [7]: no binding

More lines, now with the values ahead:

binding result [1]: no binding | binding result [2]: no binding | binding result [3]: no binding | binding result [4]: no binding | binding result [5]: no binding | binding result [6]: no binding | binding result [7]: no binding
B6: BLR-1 C-terminal peptide AA45L (peptide)
peptide: Biotin-PSWRRSSLSESENATSLTTF

binding result [1]: no binding | binding result [2]: no binding | binding result [3]: no binding | binding result [4]: no binding | binding result [5]: no binding | binding result [6]: no binding
B7: CLASP-4 C-terminal peptide AA3L-V (peptide)
peptide: Biotin-CAISGTSSDRGYGSPRYAEV

binding result [1]: no binding | binding result [2]: no binding | binding result [3]: no binding | binding result [4]: no binding | binding result [5]: no binding | binding result [6]: no binding | binding result [7]: no binding
B8: CD5 C-terminal peptide AA49L (peptide)
peptide: Biotin-SMQPDNSSDSDYDLHGAQRL

binding result [1]: no binding | binding result [2]: no binding | binding result [3]: no binding | binding result [4]: no binding | binding result [5]: no binding | binding result [6]: no binding | binding result [7]: no binding
B9: CD97 (CD55L) C-terminal peptide AA14L (peptide)
peptide: Biotin-TSGTGHNQTRALRASESGI

binding result [1]: no binding | binding result [2]: no binding | binding result [3]: no binding | binding result [4]: no binding | binding result [5]: no binding | binding result [6]: no binding | binding result [7]: no binding
B10: CDW125 (IL5R) C-terminal peptide AA28L (peptide)
peptide: Biotin-EVICYIEKPGVETLEDSVF
